Compound in data set [1]: CC(C)NCCCn1c(Sc2cc3c(cc2I)OCO3)nc2c(N)ncnc21
The experiment in a line: Competitive inhibition of recombinant wild-type human TRAP1 ATPase activity expressed in Escherichia coli BL21 (DE3) assessed as substrate Km at 5 uM preincubated for 0.5 hrs followed by varying levels of ATP addition and measured after 3 hrs using PiColorLock Gold reagent by colorimetric assay-based Lineweaver-Burk plot analysis (reference value: 84.42 +/- 3.84 uM).

Compound in data set [2]: CC(C)NCCCn1c(Sc2cc3c(cc2I)OCO3)nc2c(N)ncnc21
The experiment in a line: Competitive inhibition of recombinant wild-type human TRAP1 ATPase activity expressed in Escherichia coli BL21 (DE3) assessed as substrate Kcat at 5 uM preincubated for 0.5 hrs followed by varying levels of ATP addition and measured after 3 hrs using PiColorLock Gold reagent by colorimetric assay-based Lineweaver-Burk plot analysis (reference value: 0.87 +/- 0.01 […]).

Compound in data set [3]: CC(C)NCCCn1c(Sc2cc3c(cc2I)OCO3)nc2c(N)ncnc21
The experiment in a line: Competitive inhibition of recombinant wild-type human TRAP1 ATPase activity expressed in Escherichia coli BL21 (DE3) assessed as ratio of substrate Kcat to Km at 5 uM preincubated for 0.5 hrs followed by varying levels of ATP addition and measured after 3 hrs using PiColorLock Gold reagent by colorimetric assay-based Lineweaver-Burk plot analysis (reference value: 10.3 +/- 0.54 10^-5 /s/uM).

Substrate in data set [4]: Nc1ncnc2c1nc(Sc1cc3c(cc1I)OCO3)n2CCCCCCCCCC[P+](c1ccccc1)(c1ccccc1)c1ccccc1
The experiment in a line: Allosteric modulation of recombinant wild-type human TRAP1 ATPase activity expressed in Escherichia coli BL21 (DE3) assessed as substrate Km at 5 uM preincubated for 0.5 hrs followed by varying levels of ATP addition and measured after 3 hrs using PiColorLock Gold reagent by colorimetric assay-based Lineweaver-Burk plot analysis (reference value: 84.42 +/- 3.84 uM).

Substrate in data set [5]: Nc1ncnc2c1nc(Sc1cc3c(cc1I)OCO3)n2CCCCCCCCCC[P+](c1ccccc1)(c1ccccc1)c1ccccc1
Briefly: Allosteric modulation of recombinant wild-type human TRAP1 ATPase activity expressed in Escherichia coli BL21 (DE3) assessed as substrate Kcat at 5 uM preincubated for 0.5 hrs followed by varying levels of ATP addition and measured after 3 hrs using PiColorLock Gold reagent by colorimetric assay-based Lineweaver-Burk plot analysis (reference value: 0.87 +/- 0.01 […]).

Substrate in data set [6]: Nc1ncnc2c1nc(Sc1cc3c(cc1I)OCO3)n2CCCCCCCCCC[P+](c1ccccc1)(c1ccccc1)c1ccccc1
The experiment in a line: Allosteric modulation of recombinant wild-type human TRAP1 ATPase activity expressed in Escherichia coli BL21 (DE3) assessed as ratio of substrate Kcat to Km at 5 uM preincubated for 0.5 hrs followed by varying levels of ATP addition and measured after 3 hrs using PiColorLock Gold reagent by colorimetric assay-based Lineweaver-Burk plot analysis (reference value: 10.3 +/- 0.54 10^-5 /s/uM).

B1: Heat shock protein 75 kDa, mitochondrial (Homo sapiens), Q12931 (protein)
chain: MARELRALLLWGRRLRPLLRAPALAAVPGGKPILCPRRTTAQLGPRRNPAWSLQAGRLFSTQTAEDKEEPLHSIISSTESVQGSTSKHEFQAETKKLLDIVARSLYSEKEVFIRELISNASDALEKLRHKLVSDGQALPEMEIHLQTNAEKGTITIQDTGIGMTQEELVSNLGTIARSGSKAFLDALQNQAEASSKIIGQFGVGFYSAFMVADRVEVYSRSAAPGSLGYQWLSDGSGVFEIAEASGVRTGTKIIIHLKSDCKEFSSEARVRDVVTKYSNFVSFPLYLNGRRMNTLQAIWMMDPKDVREWQHEEFYRYVAQAHDKPRYTLHYKTDAPLNIRSIFYVPDMKPSMFDVSRELGSSVALYSRKVLIQTKATDILPKWLRFIRGVVDSEDIPLNLSRELLQESALIRKLRDVLQQRLIKFFIDQSKKDAEKYAKFFEDYGLFMREGIVTATEQEVKEDIAKLLRYESSALPSGQLTSLSEYASRMRAGTRNIYYLCAPNRHLAEHSPYYEAMKKKDTEVLFCFEQFDELTLLHLREFDKKKLISVETDIVVDHYKEEKFEDRSPAAECLSEKETEELMAWMRNVLGSRVTNVKVTLRLDTHPAMVTVLEMGAARHFLRMQQLAKTQEERAQLLQPTLEINPRHALIKKLNQLRASEPGLAQLLVDQIYENAMIAAGLVDDPRAMVGRLNELLVKALERH
A word on the Km: it is the concentration of substrate that gives half-maximal velocity. For B1, the Km in data set [1] is 1050 µM; in data set [4], 506 µM. Besides, the kcat in data set [2] stood at 0.8 ×10⁻² /s; in data set [5] it was 2.51 ×10⁻² /s. Further, the kcat/Km in data set [3] came to 0.76 ×10⁻⁵ /s/µM; in data set [6], 4.99 ×10⁻⁵ /s/µM.

The values above are taken from ChEMBL document CHEMBL4602687, “Dual Binding to Orthosteric and Allosteric Sites Enhances the Anticancer Activity of a TRAP1-Targeting Drug” (J Med Chem, 2020).
